The source of these data is publication PMC4277816 (Chemical communications (Cambridge, England), 2014).

The structures appear in SMILES notation. Square brackets hold non-standard residues; d marks the D form. Peptide text beside a SMILES is read from it. * marks the point of attachment. X2 = O=C(O)C(CCCCN*)N1CCCN2CCN(CCCN(CP(=O)(O)O)CC2)CC1; PEG4 = NCCOCCOCCOCCOCCC(=O)O; X1 = O=C(/C=C/c1ccccc1)*

This data set in a line: serum stability of 64Cu-labelled cFlFlF peptide–chelate conjugates. Type of data set: in vitro ADME. The settings on record: compared with the 64Cu–CB-TE1A1P peptide, result in words (Fig. S2b, ESI).

As for `CC(C)C[C@@H](NC(=O)[C@H](Cc1ccccc1)NC(=O)[C@@H](CC(C)C)NC(=O)[C@H](Cc1ccccc1)NC(=O)/C=C/c1ccccc1)C(=O)N[C@@H](Cc1ccccc1)C(=O)NCCOCCOCCOCCOCCC(=O)NCCCCC(C(=O)O)N1CCCN2CCN(CCCN(CP(=O)(O)O)CC2)CC1` (stereo partly drawn) [64Cu–CB-TE1K1P peptide, metal not drawn] (X1-F[dL]F[dL]F[PEG4]-X2; N-terminus assumed), the serum stability result is “better serum stability”.
